Results as given in patent US20250027068.

B1: PRT-545 (protein)
chain: MANQEIRYSEETPKTITSVWTKGVTPPTDFIKNEDVLHAPYIANQGWYDITKTFNGKDDLLCGAATAGNMLHWWFDQNKEEIERYLKKHPEKQKINFNGEQMFDVKEAIDTKDSQTDSALFEYFKDKAFPYLSTKHLGVFPDHVIDMFINGYRLSLTNHGPTPVKRGTKDPRGGIFDAVFTRGDQSKLLTSRHDFKEKTLKEISDLIKQELTEGKALGLSHTYANVRINHVINLWGADFDSEGNLEAIYVTDSDSNASIGMKKYYVGVNSAGKVAISAKEIEGDNIGAQVLGLFTLSTGQDIWEQTNLEHHHHHH
B2: PRT-587 (protein)
chain: MANQEIRYSEETPKTITSVWTKGVTPPTDFIYNEDVLHAPYIANQGWYDITKTFNGKDDLLCGAATAGNMLHWWFDQNKEQIERYLKKHPEKQKINFNGEQMFDVKEAIDTKDSQTDSKLFEYFKDKAFPYLSTKHLGVFPDHVIDMFINGYRLSLTNHGPTPVKRGTKDPRGGIFDAVFTRGDQSKLLTSRHDFKEKTLNEISDLIKQELTEGKALGLSHTYANVRINHVINLWGADFNSEGNLEAIYVTDSDSNASIGMKKYYVGVNSAGKVAISAKEIEGDNIGAQVLGLFTLSTGKDIWEQTNLEHHHHHH
B3: PRT-596 (protein)
chain: MANQEIRYSEETPSTITSVWTKGVTPPTDFIQNEDVLHAPYIANQGWYDITKTFNGKDDLLCGAATAGNMLHWWFDQNKEQIENYLKKHPEKQKINFNGEQMFDVKEAIDTKDSQTDSALFEYFKDKAFPYLSTKHLGVFPDHVIDMFINGYRLSLTNHGPTPVKRGTKDPRGGIFDAVFTRGDQSKLLTSRHDFKEKTLNEISDLIKKELTEGKALGLSHTYANVRINHVINLWGADFNAEGNLEAIYVTDSDSNASIGMKKYYVGVNSAGKVAISAKEIEGDNIGAQVLGLFTLSTGQDIWNQTNLEHHHHHH
B4: PRT-571 (protein)
chain: MANQEIRYSEETPSTITSVWTKGVTPPTQFIQNEDVLHAPYIANQGWYDITKTFNGKDDLLCGAATAGNMLHWWFDQNKEQIENYLKKHPEKQKINFNGEQMFDVKEAIDTKDSQTDSALFEYFKDKAFPYLSTKHLGVFPDHVIDMFINGYRLSLTNHGPTPVKRGTKDPRGGIFDAVFTRGDQSKLLTSRHDFKEKTLNEISDLIKQELTEGKALGLSHTYANVRINHVINLWGADFNAEGNLEAIYVTDSDSNASIGMKKYYVGVNAAGKVAISAKEIEGDNIGAQVLGLFTLSTGQDIWNQTNLEHHHHHH
B5: PRT-583 (protein)
chain: MANQEIRYSKAKPKVITSVWTKGVTPPTQFTKNEDVFHAPYLANQGWYDITKTFNGKDDLLCGAATAGNMLHWWFDQNKEQIERYLKKHPEKQKINFNGEQMFDVKEAIDTKDSQTNSKLFNYFKEKAFPYLSTKHLGVFPDHVIDMFINGYRLSLTNHGPTPVKEQNKDPRGGIFDDVFTRGDQSKLLTSRHDFKEKTLKEISDLIKQELKEGKALGLSHTYANVRINHVINLWGADFDAEGNLIAIYVTDSDSNASIGMKKYYVGVNSAGKVAISAKEIEDDNIGAQVLGLFTLSTGKDIWEKTNLEHHHHHH
B6: PRT-544 (protein)
chain: MANQEIRYSKNENPNVTIKWVHGIGEPTQAEKEKIEFWWYETTTTKFFNNRKVDHLGDGNQCWAKTDSNMLHWWFVQNEENINQYIAKKNITGKINFNGEQMFDVKEGIDDNQEKEKSYIANTFRTKKAHNLSTKHKGDYIINGLSWYLYGLNNFKIAHGPTPVKKKPKFYGPALFKDVFNRGDGNTPIIVETDFKEYTKKEFEDTLSAALDSKKAIGINIYGSNVDYQHAITLWGAAFDEEENIIAIYVVDNNFKFENRIFPYGIWYQKEGRPYLFNYEINSFVKNRYVGEVITLDKGEAQWQETNLEHHHHHH
B7: PRT-534 (protein)
chain: MANQEIRYSSDSEWANKKVWVYGITPPEEGAWKYSTYYLPWKKEYGWYDCNKRNPTADGMMCWAATASNLLHWWIAQNKEYIDLYGDKYKGPDKINFNGEQMFDVKEYIDPLDKPQESDIFQCFIDKSFADLSTKHEAGYGDAGINWFIHGIIPSSPAHGPTPVKLDYPYNPAGYFKDVFPRGDGVVLLGNNGDFKELSKERFNETIKDALKNKKAIGLSIGPVNVRSSHVVTIWGAEFDENGDVSYIYMADNNDNWGVGCIRYQIVYEEGGTYTCYKTEIIPSDRPIPINRLVTLELGEEYWKQTNLEHHHHHH
B8: PRT-246 (protein)
chain: MVTSVWTKGVTPPANFTQGEDVFHAPYVANQGWYDITKLFNGKDDLLCGAATAGNMLHWWFDQNKDQIKRYLEEHPEKQKINFNGEQMFDVKEAIDTKNHQLDSKLFDYFKEKAFPYLSTKHLGVFPDHVIDMFINGYRLSLTNHGPTPVKEGSKDPRGGIFDAVFTRGDQSKLLTSRHDFKEKNLKEISDLIKKELTEGKALGLSHTYANVRINHVINLWGADFDSNGNLKAIYVTDSDSNPSIGMKKYFVGVNSSGKVAISAKEIKEDNIGAQVLGLFTLSTGQDSWNQTN
B9: PRT-254 (protein)
chain: MVTSVWTKGVTPPTNFTYGEDVLHAPYVANQGWYDITKTFNGKDDLLCGAATAGNMLHWWFDQNKEQIENYLKKHPEKQKINFNGEQMFDVKEAIDTKDSQLDSKLFEYFLEKAFPNLSTKHLGVFPDHVIDMFINGYRLSLLNHGPTPVKRGSKDPRGGIFDAVFTRGDQSKLLTNRHDFKEKTLKEISDLIKQELTEGKALGISHTYANVRINHVINLWGADFDAEGNLEAIYVTDSDSNKSIGMKKYPVGVNSNGKVAISAKEIEEDNIGAQVLGLFTLSTGQDIWNQTN
B10: PRT-262 (protein)
chain: MVTSVWTKGVTPPTNFTYGEDVLHAPYVANQGWYDITKTFNGKDNLLCGAATAGNMLHWWFDQNKEQIENYLKKHPEKQKINFNGEQLFDVKEAIDTKDSQLDSKLFEYFLEKAFPNLSTKHLGVFPDHVIDMFINGYRLSLLNHGPTPVKRGSKDKRGGIFDAVFTRGVQSKLLTNRHDFKEKTLKEISDLIKQELTEGKALGISHTYANVRINHVINLWGADFDAEGNLEAIAVTDSDTNASIGMKKYFVGVNSSGKVAISAKEIEEDNIGAQVLGLFTLSTGQDIWNQTN
B11: PRT-270 (protein)
chain: MVTSVWTKGVTPPTDFIYGEDVLHAPYKAGQGWYDITKLFNGKDDLLCGAATAGNMLHWWFDQNKEQIENYLKKHPEKQKINFNGEQMFDVKEAIDTKDSQLDSKLFEYFLEKAFPNLSTKHLGVFPDHVIDMFINGYRLSLLNHGPTPVKRGSKDPRGGIFDAVFTRGDQSKLLTNRHDLKNKTLKEISDLIKQELTEGKALGISHTYANGRINHVINLWGADFDAEGNLEAIAVTDSDSNASIGMKKYFVGVNSSGKVAISAKEIEEDNIGAQVLGLFTLSTGQDIWNQTN
B12: PRT-554 (protein)
chain: MANQEIRYSEETPKTITSVWTKGVTPPTDFIKNEDVFHAPYVANQGWYDITKTFNGKDDLLCGAATAGNMLHWWFDQNKEEIENYLKKHPEKQKINFNGEQMFDVKEAIDTKDSQTDSALFNYFKDKAFPYLSTKHLGVFPDHVIDMFINGYRLSLTNHGPTPVKDGTKDPRGGIFDAVFTRGDQTKLLTARHDFKEKTLNEISDLIKQELTEGKALGLSHTYANVRINHVINLWGADFDSEGNLEAIYVTDSDSNASIGMKKYYVGVNAAGKVAISAKEIEDDNIGAQVLGLFTLSTGQDIWEQTNLEHHHHHH
B13: PRT-555 (protein)
chain: MANQEIRYSEETPKTITSVWTKGVTPPTDFIKNEDVLHAPYVANQGWYDITKTFNGKDDLLCGAATAGNMLHWWFDQNKEEIERYLKKHPEKQKINFNGEQMFDVKEAIDTKDSQTDSKLFEYFKDKAFPYLSTKHLGVFPDHVIDMFINGYRLSLTNHGPTPVKRGTKDPRGGIFDAVFTRGDQSKLLTSRHDFKEKTLNEISDLIKQELQEGKALGLSHTYANVRINHVINLWGADFDSEGNLEAIYVTDSDSNASIGMKKYYVGVNSAGKVAISAKEIEDDNIGAQVLGLFTLSTGKDIWEQTNLEHHHHHH
B14: PRT-575 (protein)
chain: MANQEIRYSEETPKTITSVWTKGVTPPTDFIYNEDVLHAPYIANQGWYDITKTFNGKDDLLCGAATAGNMLHWWFDQNKEQIERYLKKHPEKQKINFNGEQMFDVKEAIDTKDSQTNSKLFEYFKDKAFPYLSTKHLGVFPDHVIDMFINGYRLSLTNHGPTPVKEQTKDPRGGIFDAVFTRGDQSKLLTSRHDFKEKTLKEISDLIKQELTEGKALGLSHTYANVRINHVINLWGADFDAEGNLEAIYVTDSDSNASIGMKKYYVGVNSAGKVAISAKEIEGDNIGAQVLGLFTLSTGKDIWEQTNLEHHHHHH

Molecular target: pooled human IgG (human IgG1, 2, 3 and 4)

Compared with B1, B2 is lower in Enzyme Activity Endpoint Assay: Fab′2: 690 ng/µL for the first, 347 ng/µL for the second.

First: B3
Second: B4
The Enzyme Activity Endpoint Assay: Fab′2 of the first is lower: 753 ng/µL for the first, 786 ng/µL for the second.

Compared with B5, B6 is lower in Enzyme Activity Endpoint Assay: Fab′2: 748 ng/µL for the first, 12 ng/µL for the second.

First: B7
Second: B8
The Enzyme Activity Endpoint Assay: Fab′2 of the first is lower: 0 ng/µL for the first, 666 ng/µL for the second.

Going from B9 to B10, the Enzyme Activity Endpoint Assay: Fab′2 falls from 677 ng/µL to 50 ng/µL.

Going from B11 to B12, the Enzyme Activity Endpoint Assay: Fab′2 rises from 376 ng/µL to 580 ng/µL.

Going from B13 to B14, the Enzyme Activity Endpoint Assay: Fab′2 falls from 670 ng/µL to 254 ng/µL.

Compared with B1, B2 is lower in Enzyme Activity Endpoint Assay: Fc: 435 ng/µL for the first, 156 ng/µL for the second.

First: B3
Second: B4
The Enzyme Activity Endpoint Assay: Fc of the first is lower: 348 ng/µL for the first, 383 ng/µL for the second.

Going from B5 to B6, the Enzyme Activity Endpoint Assay: Fc falls from 396 ng/µL to 170 ng/µL.

Going from B7 to B8, the Enzyme Activity Endpoint Assay: Fc rises from 0 ng/µL to 348 ng/µL.

Going from B9 to B10, the Enzyme Activity Endpoint Assay: Fc falls from 359 ng/µL to 191 ng/µL.

Going from B11 to B12, the Enzyme Activity Endpoint Assay: Fc rises from 288 ng/µL to 350 ng/µL.

Going from B13 to B14, the Enzyme Activity Endpoint Assay: Fc falls from 475 ng/µL to 309 ng/µL.

B1 and B2 are the same in Enzyme Activity Endpoint Assay: IgG: 0 ng/µL for the first, 0 ng/µL for the second.

B3 and B4 are the same in Enzyme Activity Endpoint Assay: IgG: 0 ng/µL for the first, 0 ng/µL for the second.

Going from B5 to B6, the Enzyme Activity Endpoint Assay: IgG rises from 0 ng/µL to 314 ng/µL.

Compared with B7, B8 is lower in Enzyme Activity Endpoint Assay: IgG: 1380 ng/µL for the first, 0 ng/µL for the second.

Compared with B9, B10 is higher in Enzyme Activity Endpoint Assay: IgG: 0 ng/µL for the first, 289 ng/µL for the second.

Going from B11 to B12, the Enzyme Activity Endpoint Assay: IgG falls from 100 ng/µL to 36 ng/µL.

Compared with B13, B14 is higher in Enzyme Activity Endpoint Assay: IgG: 0 ng/µL for the first, 94 ng/µL for the second.

Going from B1 to B2, the Enzyme Activity Endpoint Assay: scIgG rises from 0 ng/µL to 120 ng/µL.

Going from B3 to B4, the Enzyme Activity Endpoint Assay: scIgG rises from 263 ng/µL to 295 ng/µL.

First: B5
Second: B6
The Enzyme Activity Endpoint Assay: scIgG of the first is lower: 261 ng/µL for the first, 748 ng/µL for the second.

First: B7
Second: B8
The Enzyme Activity Endpoint Assay: scIgG of the first is lower: 0 ng/µL for the first, 221 ng/µL for the second.

First: B9
Second: B10
The Enzyme Activity Endpoint Assay: scIgG of the first is lower: 0 ng/µL for the first, 802 ng/µL for the second.

First: B11
Second: B12
The Enzyme Activity Endpoint Assay: scIgG of the first is higher: 311 ng/µL for the first, 0 ng/µL for the second.

Going from B13 to B14, the Enzyme Activity Endpoint Assay: scIgG rises from 0 ng/µL to 607 ng/µL.
